Test results reported in the RNAGym collection of RNA variant scans (doi:10.1093/nar/gkz1192).

B1: CPEB3 Ribozyme (parent)
chain: UAACAGGGGGCCACAGCAGAAGCGUUCACGUCGCAGCCCCUGUCAGAUUCUGGUGAAUCUGCGAAUUCUGCUGUAUAUCUC

Variants of: B1
Assay: self-cleavage, relative activity (ratio to wild type); higher = more cleavage; in vitro, sequencing
How it was run: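 Barcoded CPEB3 ribozyme mutants, produced by rounds of error-prone PCR, self-cleaved while being transcribed with T7 RNA polymerase for 5 hours at 37°C and during a subsequent 15 min DNase I step before EDTA was added. Sequencing of template-switched cDNA on Illumina gave cleaved and total reads, and DNA sequencing assigned barcodes to variants. Each variant's relative activity is its cleaved/total read fraction divided by the unmutated ribozyme's fraction, averaged across three batches. A variant needed a minimum of 5 reads.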

Variant	self-cleavage
UAACAGGGGGCCACAGCAGAAGCGUUCACGACGCAGCCCCUGUCAGAUUCUGGUGAAUCUGCGAAUUCUGCUGUAUAUCCC [U31A U80C]	0.66
UAACAGGGGGCCACAGCAGAAGCGUUCACGACGCAGCCCCUGUCAGAUUCUGGUGAAUCUGCGAAUUCUGCUGUAUAUCAC [U31A U80A]	0.61
UAACAGGGGGCCACAGCAGAAGCGUUCACGACGCAGCCCCUGUCAGAUUCUGGUGAAUCUGCGAAUUCUGCUGUAUAUCGC [U31A U80G]	0.55
UAACAGGGGGCCACAGCAGAAGCGUUCACGCCGCAGCCCCUGUCAGGUUCUGGUGAAUCUGCGAAUUCUGCUGUAUAUCUC [U31C A47G]	0.8
UAACAGGGGGCCACAGCAGAAGCGUUCACGCCGCAGCCCCUGUCAGUUUCUGGUGAAUCUGCGAAUUCUGCUGUAUAUCUC [U31C A47U]	0.4
UAACAGGGGGCCACAGCAGAAGCGUUCACGCCGCAGCCCCUGUCAGCUUCUGGUGAAUCUGCGAAUUCUGCUGUAUAUCUC [U31C A47C]	0.31
UAACAGGGGGCCACAGCAGAAGCGUUCACGCCGCAGCCCCUGUCAGAUUCUGGUGAAUCUGCGAUUUCUGCUGUAUAUCUC [U31C A65U]	0.25
UAACAGGGGGCCACAGCAGAAGCGUUCACGCCGCAGCCCCUGUCAGAUUCUGGUGAAUCUGCGAGUUCUGCUGUAUAUCUC [U31C A65G]	0.35
UAACAGGGGGCCACAGCAGAAGCGUUCACGCCGCAGCCCCUGUCAGAUUCUGGUGAAUCUGCGAAUUCUGCUGUGUAUCUC [U31C A75G]	0.77
UAACAGGGGGCCACAGCAGAAGCGUUCACGCCGCAGCCCCUGUCAGAUUCUGGUGAAUCUGCGAAUUCUGCUGUCUAUCUC [U31C A75C]	1.1
UAACAGGGGGCCACAGCAGAAGCGUUCACGCCGCAGCCCCUGUCAGAUUCUGGUGAAUCUGCGAAUUCUGCUGUUUAUCUC [U31C A75U]	0.87
UAACAGGGGGCCACAGCAGAAGCGUUCACGCCGCCGCCCCUGUCAGAUUCUGGUGAAUCUGCGAAUUCUGCUGUAUAUCUC [U31C A35C]	0.46
UAACAGGGGGCCACAGCAGAAGCGUUCACGCCGCGGCCCCUGUCAGAUUCUGGUGAAUCUGCGAAUUCUGCUGUAUAUCUC [U31C A35G]	1.21
UAACAGGGGGCCACAGCAGAAGCGUUCACGCCGCUGCCCCUGUCAGAUUCUGGUGAAUCUGCGAAUUCUGCUGUAUAUCUC [U31C A35U]	0.32
UAACAGGGGGCCACAGCAGAAGCGUUCACGCCGCAGCGCCUGUCAGAUUCUGGUGAAUCUGCGAAUUCUGCUGUAUAUCUC [U31C C38G]	0.16
UAACAGGGGGCCACAGCAGAAGCGUUCACGCCGCAGCUCCUGUCAGAUUCUGGUGAAUCUGCGAAUUCUGCUGUAUAUCUC [U31C C38U]	0.98
UAACAGGGGGCCACAGCAGAAGCGUUCACGCCGCAGCACCUGUCAGAUUCUGGUGAAUCUGCGAAUUCUGCUGUAUAUCUC [U31C C38A]	0.33

Variant	self-cleavage
UAACAGGGGGCCACAGCAGAAGCGUUCACGACGCAGCCCCUGUCAGAUUCUGGUGAAUCUGCGAAUUCUGCAGUAUAUCUC [U31A U72A]	0.41
UAACAGGGGGCCACAGCAGAAGCGUUCACGACGCAGCCCCUGUCAGAUUCUGGUGAAUCUGCGAAUUCUGCCGUAUAUCUC [U31A U72C]	0.66
UAACAGGGGGCCACAGCAGAAGCGUUCACGCCGCAGCCCCUGUCAGAUUCUGGUGAGUCUGCGAAUUCUGCUGUAUAUCUC [U31C A57G]	0.75
UAACAGGGGGCCACAGCAGAAGCGUUCACGCCGCAGCCCCUGUCAGAUUCUGGUGAUUCUGCGAAUUCUGCUGUAUAUCUC [U31C A57U]	0.47
UAACAGGGGGCCACAGCAGAAGCGUUCACGCCGCAGCCCCUGUCAGAUUCUGGUGACUCUGCGAAUUCUGCUGUAUAUCUC [U31C A57C]	0.49
UAACAGGGGGCCACAGCAGAAGCGUUCACGCCGCAGCCCAUGUCAGAUUCUGGUGAAUCUGCGAAUUCUGCUGUAUAUCUC [U31C C40A]	0.2
UAACAGGGGGCCACAGCAGAAGCGUUCACGCCGCAGCCCUUGUCAGAUUCUGGUGAAUCUGCGAAUUCUGCUGUAUAUCUC [U31C C40U]	0.49
UAACAGGGGGCCACAGCAGAAGCGUUCACGCCGCAGUCCCUGUCAGAUUCUGGUGAAUCUGCGAAUUCUGCUGUAUAUCUC [U31C C37U]	0.46
UAACAGGGGGCCACAGCAGAAGCGUUCACGCCGCAGACCCUGUCAGAUUCUGGUGAAUCUGCGAAUUCUGCUGUAUAUCUC [U31C C37A]	0.28
UAACAGGGGGCCACAGCAGAAGCGUUCACGCCGCAGCCCCUGUCAGAUUAUGGUGAAUCUGCGAAUUCUGCUGUAUAUCUC [U31C C50A]	0.67
UAACAGGGGGCCACAGCAGAAGCGUUCACGCCGCAGCCACUGUCAGAUUCUGGUGAAUCUGCGAAUUCUGCUGUAUAUCUC [U31C C39A]	0.18
UAACAGGGGGCCACAGCAGAAGCGUUCACGCCGCAGCCCCUGUCAGAUUCUGGUGAAUCUGCGAAUUCUGCUGUAUAUCUC [U31C]	0.87
UAACAGGGGGCCACAGCAGAAGCGUUCACGCCGCAGCCCCUGUCAGAUUCUGGUGAAUCUGCGAAUUCUGCUGUAUUUCUC [U31C A77U]	0.86
UAACAGGGGGCCACAGCAGAAGCGUUCACGCCGCAGCCCCUGUCAGAUUCUGGUGAAUCUGCGAAUUCUGCUGUAUGUCUC [U31C A77G]	0.94
UAACAGGGGGCCACAGCAGAAGCGUUCACGCCGCAGCCCCUGUUAGAUUCUGGUGAAUCUGCGAAUUCUGCUGUAUAUCUC [U31C C44U]	0.26
UAACAGGGGGCCACAGCAGAAGCGUUCACGCCGCAGCCCCUGUGAGAUUCUGGUGAAUCUGCGAAUUCUGCUGUAUAUCUC [U31C C44G]	0.31
UAACAGGGGGCCACAGCAGAAGCGUUCACGCCGCAGCCCCUGUAAGAUUCUGGUGAAUCUGCGAAUUCUGCUGUAUAUCUC [U31C C44A]	0.4
